This data set can be described thus: soluble on expression in E. coli; label from the status in PepcDB or PDB records.
Take “MTNSIRIGTRKSPLALIHTNLVIQQIKQFFPDINCEIVPIITSGDLIQNKPLYDIGGKALFLKEIEQALLDKKIDLAVHSLKDVPGRMPEPLVIAAVLEREDPRDVFVCLKYKSIEELPQNAVIGSSAVRRKAFIQKIRPDLKVTVFRGNVDSRIKKLMTGEVDATILAYTGLKRLEVFNPEYCHLIEYSQMLPCIGQGVIAVEIRKDDNAMLEICNQINHLPTFELIKPERAFLEYLDANCRTPIAAYSQYLDANPRHLSKLAYREVLEGNTEALATAAYKSNRTDASTGLTYKLPLEVEFGKVSNIQTNFMLGNLDGSKITFHTETTNIKTSTEAGIKAAKMMLEAICK”: the “soluble on expression in E. coli” value is reported as “soluble”.

As to “MGHHHHHHSHKPDEDDANRLGEKVILREQVKELFNEKYGEALGLNRPVLVPYKLIRDSPDAVEVTGLPDDIPFRNPNTYDIHRLEKILKAREHVRMVIINQLQPFAEICNDAKVPAKDSSIPKRKRKRVSEGNSVSSSSSSSSSSSSNPDSVASANQISLVQWPMYMVDYAGLNVQLPGPLNY”, the “soluble on expression in E. coli” value is on record as “not soluble”.

“MKQLTVEDAKQIELEILDYIDTLCKKHNINYIINYGTLIGAVRHEGFIPWDDDIDLSMPREDYQRFINIFQKEKSKYKLLSLETDKNYFNNFIKITDSTTKIIDTRNTKTYESGIFIDIFPIDRFDDPKVIDTCYKLESFKLLSFSKHKNIVYKDSLLKDWIRTAFWLLLRPVSPRYFANKIEKEIQKYSRENGQYMAFIPSKFKEKEVFPSGTFDKTIDLPFENLSLPAPEKFDTILTQFYGLEHHHHHH”: the “soluble on expression in E. coli” value is listed as “not soluble”.

On to “MGSDKIHHHHHHMSWNSFGNFMSARSSALAEFGNMVANLVSAKNEKDISKRNEYYKQAGYSALLAFGNLASNIAPGSTSSHIVNGTNASVIASRLSGNISSAIQEHKDGKVNINRFQNILADLYSLGGLGSTLIEKNGNMQSWGIPLAIAGDIIAATAIATGDTGTISTEEFYNFDNWKGFGYELFEDWSRWVYDWLPDGWNLWKELDRNRCWILTERDGRRQFKWLGKPDPTRGWFDNGHECLKPWGNIFDSYRRGKYHVYDPLALDLDGDGIETVATKGFSGALFDHRNQGIRTATGWVSADDGLLVRDLNGNGIIDNGAELFGDNTKLADGSFAKHGYAALAELDSNGDNIINAADAAF”, for which the “soluble on expression in E. coli” value is “not soluble”.

On to “MGSDKIHHHHHHMEQKICVIGFSGGQDSTTLAVWAKKRFKKVCLVGFDYAQKHSVELECAQKIASLLQLPYEIIPLDFLENITRSALFKNSNDLIGHSHAQNKDLPNSFVPNRNAIFITLLHSYAQKLGASNIALGVSQADFSGYPDCKEDFIKSIEHALNLGSNTAIKILTPLMFLNKAQEFQMAKDLGVLDLVIKETHTCYQGERKILHAYGYGCDKCPACQLRKKGFEEFQANKK”, for which the “soluble on expression in E. coli” value is recorded as “not soluble”.

Take “CKLCLGEYPVEQMTTIAQCQCIFCTLCLKQYVELLIKEGLETAISCPDAACPKQGHLQENEIECMVAAEIMQRYKKLQFER”: the “soluble on expression in E. coli” value is recorded as “soluble”.

As to “MGSDKIHHHHHHATWITTLGGMDWPRNKAVNASGIRRQQKELCDILDRLKAANFNTVLLQTRLRGDMIYPSAIETFGESLTGSTGGNPGYDPLAFAIGECHKRGMELHAWIVTIPAGNTRQVQLQGRSSVVRKNRTICKLYKGNWYLDPGNPGTKEYLSCIVKEITSRYDIDGIHFDYIRYPEQADNFPDKDTYRKYGKGKELKQWRRDNITDIVHRLYTDIKTIKPWVKVSSSPIGKYRDTNRYPSRGWNAYHVVYQDAQKWLKEGIHDALFPMMYFQGNNFYPFALDWKENCGNRWIVPGLGIYFLSPDEQNWPLDEIVRQLHFTRQIKLNGQAYFRNRFLLNNTKGIWDELQENFYTTPALIPPMTWMDSIPPSTPAMPSLQLLPDGKMHMSWQISTDNNGGLVTYHLYASDTYPVDITDAGNLLETYLTHTEYEYTPISPWRQKRYFAVTAADRFGNESAPLELNAISETDMPLLNDGDILTLPEIKEAKTVKIFTVTGEEIKYFVYAPQMSIASLPGGFYTVYILNNAGAQTFVGTIVK”, the “soluble on expression in E. coli” value is listed as “not soluble”.

In the case of “MEEELRVRLNDHQVSKVFPVKPKSTANVVAVMEELVARRKLMKCVSNMEEGELGMLLGFLQRYCTVQRYSGLLMGLTKKVLETRAEDIKGKNEFKGLLRNLKREVNQEIRIQQSLLEIQGVIAPLMRIAGRS”, the “soluble on expression in E. coli” value is reported as “not soluble”.

(Values after the DeepSol protein solubility set.)
